Positions count from the first letter of the chain named. Where two headings read alike, the source gives them in different places.
B1: NanA571: recombinant 571-amino-acid central fragment of TIGR4 NanA, corresponding to residues 230-800 of R6 NanA; His-tagged form SEQ ID NO:18 (protein, listed as Streptococcus pneumoniae)
chain: PTAELPKGRVRLYVNGVLSRTSLRSGNFIKDMPDVTHVQIGATKRANNTVWGSNLQIRNLTVYNRALTPEEVQKRSQLFKRSDLEKKLPEGAALTEKTDIFESGRNGNPNKDGIKSYRIPALLKTDKGTLIAGADERRLHSSDWGDIGMVIRRSEDNGKTWGDRVTITNLRDNPKASDPSIGSPVNIDMVLVQDPETKRIFSIYDMFPEGKGIFGMSSQKEEAYKKIDGKTYQILYREGEKGAYTIRENGTVYTPDGKATDYRVVVDPVKPAYSDKGDLYKGDQLLGNIYFTTNKTSPFRIAKDSYLWMSYSDDDGKTWSAPQDITPMVKADWMKFLGVGPGTGIVLRNGPHKGRILIPVYTTNNVSHLDGSQSSRVIYSDDHGKTWHAGEAVNDNRQVDGQKIHSSTMNNRRAQNTESTVVQLNNGDVKLFMRGLTGDLQVATSKDGGVTWEKDIKRYPQVKDVYVQMSAIHTMHEGKEYIILSNAGGPKRENGMVHLARVEENGELTWLKHNPIQKGEFAYNSLQELGNGEYGILYEHTEKGQNAYTLSFRKFNWEFLSKNLISPTEAN
B2: NanA571_E647T: NanA571 with glutamate E647 converted to threonine (protein)
chain: B1 chain with E418T
B3: NanA571_Y752F: NanA571 with tyrosine Y752 converted to phenylalanine (protein)
chain: B1 chain with Y523F
B4: NanA215: recombinant NanA fragment from TIGR4, residues 347-561, covers 2 of 4 Asp boxes; His-tagged form SEQ ID NO:20 (protein)
chain: RIPALLKTDKGTLIAGADERRLHSSDWGDIGMVIRRSEDNGKTWGDRVTITNLRDNPKASDPSIGSPVNIDMVLVQDPETKRIFSIYDMFPEGKGIFGMSSQKEEAYKKIDGKTYQILYREGEKGAYTIRENGTVYTPDGKATDYRVVVDPVKPAYSDKGDLYKGDQLLGNIYFTTNKTSPFRIAKDSYLWMSYSDDDGKTWSAPQDITPMVKAD
B5: NanA186: recombinant near-N-terminal NanA fragment from TIGR4, residues 157-342; His-tagged form SEQ ID NO:22 (protein)
chain: EFKPDAKAPAFYNLFSVSSATKKDEYFTMAVYNNTATLEGRGSDGKQFYNNYNDAPLKVKPGQWNSVTFTVEKPTAELPKGRVRLYVNGVLSRTSLRSGNFIKDMPDVTHVQIGATKRANNTVWGSNLQIRNLTVYNRALTPEEVQKRSQLFKRSDLEKKLPEGAALTEKTDIFESGRNGNPNKDG
B6: NanB: another S. pneumoniae neuraminidase, 43% homology with NanA (protein, UniProt Q54727 30-697, looked up)
Sialidase B: NELNYGQLSISPIFQGGSYQLNNKSIDISSLLLDKLSGESQTVVMKFKADKPNSLQALFGLSNSKAGFKNNYFSIFMRDSGEIGVEIRDAQKGINYLFSRPASLWGKHKGQAVENTLVFVSDSKDKTYTMYVNGIEVFSETVDTFLPISNINGIDKATLGAVNREGKEHYLAKGSIDEISLFNKAISDQEVSTIPLSNPFQLIFQSGDSTQANYFRIPTLYTLSSGRVLSSIDARYGGTHDSKSKINIATSYSDDNGKTWSEPIFAMKFNDYEEQLVYWPRDNKLKNSQISGSASFIDSSIVEDKKSGKTILLADVMPAGIGNNNANKADSGFKEINGHYYLKLKKNGDNDFRYTVRENGVVYNETTNKPTNYTINDKYEVLEGGKSLTVEQYSVDFDSGSLRERHNGKQVPMNVFYKDSLFKVTPTNYIAMTTSQNRGESWEQFKLLPPFLGEKHNGTYLCPGQGLALKSSNRLIFATYTSGELTYLISDDSGQTWKKSSASIPFKNATAEAQMVELRDGVIRTFFRTTTGKIAYMTSRDSGETWSKVSYIDGIQQTSYGTQVSAIKYSQLIDGKEAVILSTPNSRSGRKGGQLVVGLVNKEDDSIDWKYHYDIDLPSYGYAYSAITELPNHHIGVLFEKYDSWSRNELHLSNVVQYIDLEINDLTK

Tests used:
[1] = tested on: TIGR4 Streptococcus pneumoniae; assay type: in vivo; conditions: for protection against nasal carriage / colonization (nasal wash and nasal tissue) / protection from pneumococci reaching (invasion into) the lungs, olfactory bulb, or brain: CBA/N mice, 50 μg intranasal with CTB, TIGR4 challenge, day 7
[2] = MUAN assay of neuraminidase activity; assay type: biochemical; conditions: MUAN assay at 37° C. at pH 7.0
Excerpt: The total abolishment of activity is consistent with the proposed activities as based on the alignment with structures previously known.

[3] = Sialidase (neuraminidase) activity of recombinant NanA fragments; assay type: biochemical
Method: The decreased activity of a detoxified neuraminidase or a neuraminidase fragment as compared to non-detoxified neuraminidase can be measured by the assay of Lock, et al. (Microb. Pathog. 4; 33-43, 1988). Using the Lock assay, NanA activity in lysates, serum, or blood can be measured using 2′-(4-methyl-umbelliferyl)-α-D-N-acetylyneuraminic acid as the substrate in a enzyme assay (Lock et al. 1988). Ten microliters of substrate are combined with 10 μL of serum and incubated for 5 minutes at 37° C. The reaction is stopped using 0.5 M sodium carbonate. Neuraminidase activity is measured in terms of the amount of 4-methylumbelliferone (MU) released per minute. MU has an excitation wavelength of 366 nm and an emission wavelength of 445 nm. […] Thus, the detoxified neuraminidase or fragment thereof can have no measurable enzymatic activity as compared to the enzymatic activity of a non-detoxified neuraminidase. Further, the detoxified neuraminidase can have protective antibody eliciting activity similar to the non-detoxified neuraminidase.
Such an assay is described in Berry et al., J. Bacterial 1784854-4860 (1996).

[4] = NanB at its optimal pH; cited from earlier work

Molecule	protection against nasal carriage / colonization (nasal wash and nasal tissue) [1]	neuraminidase activity [2]	sialidase activity of the recombinant protein [3]	protection from pneumococci reaching (invasion into) the lungs, olfactory bulb, or brain [1]	other results
B1	solid protection	3.9 µmol/min/mg	active		protection against nasal carriage / colonization (nasal wash and nasal tissue) ([1]; listed as rNanA571): elicited protection; in vivo protection to S. pneumoniae challenge ([1]; figure legend FIG. 11): elicited in vivo protection; sialidase activity of the recombinant protein ([3]; listed as rNanA571): enzymatically active
B2		Neither mutation exhibited any detectable neuraminidase activity			
B3		Neither mutation exhibited any detectable neuraminidase activity			
B4	no observed statistically significant protection		no sialidase activity	did not elicit protection	
B5	no observed statistically significant protection		no sialidase activity	did not elicit protection	
B6					sialidase activity relative to NanA at its pH optimum [4]: about 1/100

Source: patent publication US8329195B2, “Detoxified pneumococcal neuraminidase and uses thereof” (priority 2007, dated 2012)
